Reference: PMC8322407 (Communications Biology, 2021)
One block for each binder: values may come before it.

Assays:
[1] = target: T1, Human Arginase 1 (hArg1), trimeric (human, UniProt P05089); assay: SPR; Antibody captured on an anti-mouse IgG or anti-human Fc surface (CM5 chip, Biacore T200 or 4000); human ARG1 injected, twofold dilutions from 100 nM; 10 mM HEPES, 150 mM NaCl, 0.05% P20, 3 mM EDTA, pH 7.4; 25 °C; 1:1 binding model; conditions: both partners purified
T1 construct: Human arginase 1, full-length, untagged; trimeric metalloenzyme, each monomer ~35 kDa; buffers contained MnCl2 (the SPR buffer contained 3 mM EDTA); also called trimeric hArg1; human Arg1; source: E. coli BL21 (DE3), purified (heat treatment, HiTrap-SP, Superdex 200)

[2] = target: T2, Monomeric hArg1 (Arg308 mutated to alanine) (Homo sapiens (Human)., UniProt P05089, Arg308 to an alanine residue); assay: as above; conditions: both partners purified
T2 construct: Human arginase 1 with Arg308 at the monomer interface mutated to alanine, which gives a monomer; also called monomeric human ARG1

[3] = target: the molecule itself; assay: cryo-EM structure; hArg1 and full-length mAb mixed at 3:1 molar ratio in 25 mM HEPES pH 7.4, 150 mM NaCl, 1.0 mM MnCl2, incubated 30 min; diluted to ~75 uM monomeric arginase, DDM added to the CMC
[4] = target: T1, Human Arginase 1 (hArg1), trimeric; assay: enzyme inhibition kinetics; Thioarginine to thioornithine assay; 1 nM human or mouse arginase incubated 30 min at room temperature with fixed antibody concentrations, variable thioarginine; 50 mM Tris pH 7.5, 50 mM NaCl, 1 mM Mn chloride, 0.05% BSA; competitive inhibition model; conditions: both partners purified
[5] = target: T1, Human Arginase 1 (hArg1), trimeric; assay: cryo-EM structure; hArg1 and full-length mAb mixed at 3:1 molar ratio in 25 mM HEPES pH 7.4, 150 mM NaCl, 1.0 mM MnCl2, incubated 30 min; diluted to ~75 uM monomeric arginase, DDM added to the CMC; conditions: both partners purified
mouse Arg1 = target: T3, mouse Arg1 (Mus musculus (Mouse)., UniProt Q61176); assay: enzyme inhibition kinetics; Thioarginine to thioornithine assay; 1 nM human or mouse arginase incubated 30 min at room temperature with fixed antibody concentrations, variable thioarginine; 50 mM Tris pH 7.5, 50 mM NaCl, 1 mM Mn chloride, 0.05% BSA; competitive inhibition model; conditions: both partners purified
T3 construct: Mouse arginase 1; construct not described; also called mouse arginase
T3 sequence (Q61176 whole entry): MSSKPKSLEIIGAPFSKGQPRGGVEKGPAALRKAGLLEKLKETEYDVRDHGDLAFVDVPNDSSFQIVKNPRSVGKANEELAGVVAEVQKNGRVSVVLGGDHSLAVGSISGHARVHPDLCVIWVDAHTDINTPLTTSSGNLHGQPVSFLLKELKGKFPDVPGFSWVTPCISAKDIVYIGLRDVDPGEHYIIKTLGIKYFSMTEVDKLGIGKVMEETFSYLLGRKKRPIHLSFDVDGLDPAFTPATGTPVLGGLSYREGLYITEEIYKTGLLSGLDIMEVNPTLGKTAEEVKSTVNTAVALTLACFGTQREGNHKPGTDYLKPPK

- Kd [1]: 0.56 nM
- Kd [2]: 20 nM
B1: mAb4 (antibody, V domains shown)
VH: EVQLVQSGAEVKKPGASVKVSCKASGYTFTDYYMNWVRQAPGQGLEWIGVISPYNGGTTYNQKFKGKATLTVDKSTSTAYMELSSLRSEDTAVYYCVYDLYYFDYWGQGTLVTVSS
VL: EIVLTQSPATLSLSPGERATLSCRASQRISNDLHWYQQKPGQAPRLLIKYASQSISGIPSRFSGSGSGTDFTLTISSLEPEDFAVYYCQQSNSWPRTFGGGTKLEIK

B2: Human Arginase 1 (hArg1), trimeric (enzyme, UniProt P05089 1-322, looked up)
chain: MSAKSRTIGIIGAPFSKGQPRGGVEEGPTVLRKAGLLEKLKEQECDVKDYGDLPFADIPNDSPFQIVKNPRSVGKASEQLAGKVAEVKKNGRISLVLGGDHSLAIGSISGHARVHPDLGVIWVDAHTDINTPLTTTSGNLHGQPVSFLLKELKGKIPDVPGFSWVTPCISAKDIVYIGLRDVDPGEHYILKTLGIKYFSMTEVDRLGIGKVMEETLSYLLGRKKRPIHLSFDVDGLDPSFTPATGTPVVGGLTYREGLYITEEIYKTGLLSGLDIMEVNPSLGKTPEEVTRTVNTAVAITLACFGLAREGNHKPIDYLNPPK
notes: Human arginase 1, full-length, untagged; trimeric metalloenzyme, each monomer ~35 kDa; buffers contained MnCl2 (the SPR buffer contained 3 mM EDTA); also called trimeric hArg1; human Arg1; source: E. coli BL21 (DE3), purified (heat treatment, HiTrap-SP, Superdex 200)
- stoichiometry N [3]: 3

- Ki [4]: 3.3 ± 0.3 nM
B3: mAb1 (antibody, V domains shown)
VH: QVQLVQSGAEVKKPGASVKVSCKASGYTFTNYGISWVRQAPGQGLEWMGWISAYNGNTNYAQKLQGRVTMTTDTSTSTAYMELRSLRSDDTAVYYCAREGAYGYRSPYHNWFDPWGQGTLVTVSS
VL: EIVMTQSPATLSLSPGERATLSCRASQSVSSYLAWYQQKPGQAPRLLIYDASNRATGIPARFSGSGSGTDFTLTISSLEPEDFAVYYCQQHSLLPRTFGGGTKVEIK
notes: Human heavy chain variable domain from yeast display; heavy chain of the Fab in PDB 7LEX and 7LEZ; Mouse IgG2a heavy chain constant region (backbone); Human light chain variable domain from yeast display; light chain of the Fab in PDB 7LEX and 7LEZ; Mouse kappa light chain constant region (mouse IgG2a/kappa backbone); Full-length mAb, human variable regions on a mouse IgG2a/kappa backbone; The Fc …

- Ki [4]: 5.3 ± 0.8 nM
B4: mAb2 (antibody, V domains shown)
VH: B3 VH
VL: B3 VL
notes: Human heavy chain variable domain, identical to that of m3 (mAb1); heavy chain of the Fab in PDB 7LF0; Human light chain variable domain, identical to that of m3 (mAb1); light chain of the Fab in PDB 7LF0; Mouse kappa light chain constant region (mouse IgG1 D265A/kappa backbone); Full-length mAb; differs from mAb1 only in the constant domains; also called mAbs1-3 (member); source: ExpiCHO-S, …

- binding result [5]: binds
- Ki (mouse Arg1): 25 ± 1.7 nM
B5: mAb5 (antibody, V domains shown)
VH: EVQLVESGGGVVRPGGSLRLSCAASGFTFDDYGMTWVRQAPGKGLEWVSGINWNGGSTGYADSVKGRFTISRDNAKNSLYLQMNSLRAEDTALYHCARDRRRGSYGSDAFDIWGQGTMVTVSS
VL: DIQMTQSPSSLSASVGDRVTITCRASQGISNYLAWYQQKPGKVPQLLISAASTLQSGVPSRFSGSGSGTDFTLTISSLQPEDVATYYCQKYNSAPRTFGQGTKVEIK
notes: Human heavy chain variable domain from a transgenic (Trianni) mouse immunization; heavy chain of the Fab in PDB 7LEY; Human light chain variable domain from a transgenic (Trianni) mouse immunization; light chain of the Fab in PDB 7LEY; Mouse kappa light chain constant region (mouse IgG1 D265A/kappa backbone); Full-length mAb, human variable regions on a mouse IgG1 D265A/kappa backbone; source: …
